Measured values: article PMC9585516, “In Vitro Demonstration of Human Lipoyl Synthase Catalytic Activity in the Presence of NFU1” (ACS Bio & Med Chem Au, 2022)

B1: human NFU1, amino acids 59-254, holo form (domain or fragment)
chain: GHMFIQTQDTPNPNSLKFIPGKPVLETRTMDFPTPAAAFRSPLARQLFRIEGVKSVFFGPDFITVTKENEELDWNLLKPDIYATIMDFFASGLPLVTEETPSGEAGSEEDDEVVAMIKELLDTRIRPTVQEDGGDVIYKGFEDGIVQLKLQGSCTSCPSSIITLKNGIQNMLQFYIPEVEGVEQVMDDESDEKEANSP
notes: Gly-His N-terminal appendage left after removal of the His6-SUMO tag; NFU1, human, Q9UMS0 (full length 1-254), N-terminally truncated variant, amino acids 59-254; Holo form with a [4Fe-4S] cluster; also called holo-NFU1; NFUI; source: E. coli BL21 (DE3) with pDB1282, purified under anoxic conditions (Ni-IMAC, SUMO tag removed with ULP1, SEC); not shown: His6, N-terminal, cleaved; SUMO, …
B2: human lipoyl synthase (LIAS), amino acids 28-372, holo form (enzyme)
chain: GHLSSLPDKKKELLQNGPDLQDFVSGDLADRSTWDEYKGNLKRQKGERLRLPPWLKTEIPMGKNYNKLKNTLRNLNLHTVCEEARCPNIGECWGGGEYATATATIMLMGDTCTRGCRFCSVKTARNPPPLDASEPYNTAKAIAEWGLDYVVLTSVDRDDMPDGGAEHIAKTVSYLKERNPKILVECLTPDFRGDLKAIEKVALSGLDVYAHNVETVPELQSKVRDPRANFDQSLRVLKHAKKVQPDVISKTSIMLGLGENDEQVYATMKALREADVDCLTLGQYMQPTRRHLKVEEYITPEKFKYWEKVGNELGFHYTASGPLVRSSYKAGEFFLKNLVAKRKTKDL
notes: Gly-His N-terminal appendage left after removal of the His6-SUMO tag; Holo form with two [4Fe-4S] clusters; also called holo-LIAS; source: E. coli BL21 (DE3) with pDB1282, purified under anoxic conditions (Ni-IMAC, SUMO tag removed with ULP1, SEC); not shown: His6, N-terminal, cleaved; SUMO, N-terminal, cleaved

Columns and labels:
[1] = molecular target: B2; assay: ITC; 2 uL injections of LIAS (150 uM, syringe) into NFU1 (19 uM, cell) at 27 °C, anaerobic; 0.1 M HEPES pH 7.5, 0.5 M KCl, 5% glycerol, 2 mM TCEP; conditions: both partners purified
[2] = molecular target: B1; assay: SEC; HiPrep 16/60 Sephacryl HR S-200 in an anaerobic glovebox, 0.5 mL/min; 50 mM HEPES pH 7.5, 250 mM KCl, 10% glycerol, 2.5 mM TCEP, 10 mM BME; holo-LIAS alone (100 uM), holo-NFU1 alone (200 uM) and a 1:1 mixture; masses from a calibration curve; peak fractions checked by SDS-PAGE; conditions: both partners purified

Binder | Kd [1] | stoichiometry N [2]
B1 | 700 ± 200 nM | –
B2 | – | 1
